Data as given in PMC11178655, “Dosimetry and pharmacokinetics of [^177Lu]Lu-satoreotide tetraxetan in patients with progressive neuroendocrine tumours” (European Journal of Nuclear Medicine and Molecular Imaging, 2024).
Several values for one entry are separate records, joined by “and”; a condition that tells them apart may be missing. Equal values may be shown once. Where a SMILES comes first, the peptide text is derived from it. Bridges are numbered along the chain shown (N, C = ends). [ ]: non-standard residue; d: D form. The star is where a group is joined. DOTA = O=C(O)CN1CCN(CC(=O)O)CCN(CC(=O)*)CCN(CC(=O)O)CC1; dPhe(4-NHCONH2) = NC(=O)Nc1ccc(C[C@@H](N)C(=O)O)cc1; Dihydroorotyl(S) = O=C1C[C@@H](C(=O)*)NC(=O)N1; Phe(4-Cl) = N[C@@H](Cc1ccc(Cl)cc1)C(=O)O; Phe(4-NH2) = Nc1ccc(C[C@H](N)C(=O)O)cc1

System: patients with progressive, SSTR-positive NETs
Experiment: Patient-specific image-based dosimetry (NUKDOS) of tumours and organs, phase I/II trial
Type: in vivo, human
Protocol: In both parts A and B of the study, patients underwent planar whole-body imaging at 4 h and 1, 2, 3, and 6 days after each [^177Lu]Lu-satoreotide tetraxetan treatment cycle. Patients in part A also underwent single-photon emission computed tomography/computed tomography (SPECT/CT) at 24 h after each [^177Lu]Lu-satoreotide tetraxetan cycle. Those in part B underwent SPECT/CT, immediately before or after planar scintigraphy, at 4 h, and 1, 2, 3, and 6 days after each [^177Lu]Lu-satoreotide tetraxetan administration. Full details of the image acquisition methodology are provided in the Supplementary Information.
Delineation of tumour volumes was performed on anatomical SPECT/CT images after each [^177Lu]Lu-satoreotide tetraxetan administration. Tumours with a longest diameter < 2 cm were not analysed due to the difficulty in correcting for partial volume effects caused by the limited spatial resolution of the SPECT/CT systems. For study inclusion in part A, one tumour lesion ≥ 2 cm must have been present for eligibility; in part B, two or more tumour lesions ≥ 2 cm must have been present, each with an uptake on SSTR imaging higher than that of normal liver parenchyma (target lesion on [^68Ga]Ga-DOTA-TATE or -DOTA-TOC positron emission tomography: maximum standardised uptake value [SUVmax] ≥ 2x the mean SUV [SUVmean] of liver background; or ^111In-scintigraphy/SPECT: Krenning score 3 or 4 [uptake > normal liver, or uptake > spleen or kidneys, respectively [26]]).
Reconstruction parameters were set up to produce isotropic voxels of < 5 mm; voxels were continuous throughout the field of view. Anatomic coverage of the acquisition was determined according to the patients’ tumour locations on the planar whole-body scan acquisition with liver, both kidneys and spleen in the same bed position. For organs showing [^177Lu]Lu-satoreotide tetraxetan uptake, regions of interest (ROIs)/volumes of interest (VOIs) were drawn manually over the whole organs of interest (whole body, left and right kidneys, liver, spleen, and bone marrow), using the NUKDOS software for planar whole-body scans and the SPECT/CT acquired in part A [27]. VOIs for the same organs were drawn for all SPECT/CT images acquired in part B. All ROIs/VOIs were then used for activity quantification. Time-integrated activity coefficients (TIACs) for a given source volume were computed by integrating the time-activity curves. Full details of the tumour delineation and activity quantification methodology are provided in the Supplementary Information.
Patient-specific dosimetry calculations were performed after each treatment cycle in both parts A and B, using the absorbed dose calculation features of the NUKDOS software for image-based dosimetry calculations. The NUKDOS software was chosen as it allowed for an integral approach to organ dosimetry (including image quantification, time-activity curve-fitting and dosimetry calculation). For the bone marrow, both image-based and blood-based calculations were performed in part A [28, 29]. In part B, only image-based bone marrow dosimetry was performed. Organ Level INternal Dose Assessment/EXponential Modelling (OLINDA/EXM) version 1.0 software, the most widely used version at the time of the study, was used to perform model-based dosimetry calculations, which were only performed after the first [^177Lu]Lu-satoreotide tetraxetan cycle for patients in part B. To generate organ-specific absorbed doses, TIACs were used as input data. Full details on OLINDA/EXM software settings and organ-specific TIAC calculation methods are provided in the Supplementary Information.
All images were acquired with a 20% energy window around the main photopeak of ^177Lu (208 keV). For scatter correction, the triple-energy window method was applied based on the recommendation of the Committee on Medical Internal Radiation Dose. Whole-body images were acquired with a scanning time of 20 cm/min in a 256 × 1,024 matrix. […]

[1] = Part B Cohort 3 (4.5 GBq, 300 µg; 700 µg at cycle 2), median (range), n = 8
[2] = Part B Cohort 3 (4.5 GBq/cycle), image-based dosimetry, median (range), n = 6
[3] = Part B Cohort 3 (4.5 GBq/cycle), median (range), n = 8
[4] = Part B Cohort 3 (4.5 GBq/cycle), median (range), n = 9
[5] = Part B Cohort 3, median (range), n = 8
[6] = Part B Cohort 6 (4.5 GBq/cycle), median (range), n = 6
[7] = Part B Cohort 6 (4.5 GBq/cycle), median (range), n = 7
[8] = Part B Cohort 6 (4.5 GBq/cycle), median (range), n/n-les 4/9

C[C@@H](O)[C@@H]1NC(=O)[C@H](CCCCN)NC(=O)[C@@H](Cc2ccc(NC(N)=O)cc2)NC(=O)[C@H](Cc2ccc(NC(=O)[C@@H]3CC(=O)NC(=O)N3)cc2)NC(=O)[C@H](NC(=O)[C@H](Cc2ccc(Cl)cc2)NC(=O)CN2CCN(CC(=O)O)CCN(CC(=O)O)CCN(CC(=O)O)CC2)CSSC[C@@H](C(=O)N[C@H](Cc2ccc(O)cc2)C(N)=O)NC1=O [[^177Lu]Lu-satoreotide tetraxetan, metal not drawn] ({DOTA}-[Phe(4-Cl)][dC][Phe(4-NH2)](Dihydroorotyl(S))[dPhe(4-NHCONH2)]KTC[dY]-NH2; disulfide 2-7 (inferred); C-terminus assumed)
Cycle 3 ADC, Kidneys [1]: 0.8 (0.4–1.2) Gy/GBq | Cycle 3 ADC, Tumours [1]: 5.5 (2.6–16.8) Gy/GBq | Ratio of ADCs Cycle 2/Cycle 1 (700 vs. 300 µg), Bone marrow [2]: 95.0 (36.4–143) % | Ratio of ADCs Cycle 2/Cycle 3 (700 vs. 300 µg), Bone marrow [2]: 95.0 (60.0–125) % | Ratio of ADCs Cycle 2/Cycle 3 (700 vs. 300 µg), Spleen (Part B Cohort 3 (4.5 GBq/cycle), median (range), n = 5): 79.3 (61.2–90.8) % | Ratio of ADCs Cycle 2/Cycle 1 (700 vs. 300 µg), Spleen (Part B Cohort 3 (4.5 GBq/cycle), median (range), n = 6): 61.9 (45.9–108) % | Ratio of ADCs Cycle 2/Cycle 3 (700 vs. 300 µg), Body [3]: 101 (78.7–132) % | Ratio of ADCs Cycle 2/Cycle 3 (700 vs. 300 µg), Kidney [3]: 82.0 (64.8–110) % | Ratio of ADCs Cycle 2/Cycle 1 (700 vs. 300 µg), Body [4]: 83.3 (52.8–100) % | Ratio of ADCs Cycle 2/Cycle 1 (700 vs. 300 µg), Kidney [4]: 80.8 (61.0–113) % | Ratio of ADCs Cycle 2/Cycle 3 (700 vs. 300 µg), Liver lesions (Part B Cohort 3 (4.5 GBq/cycle), median (range), n/n-les 6/9): 68.9 (57.3–121) % | Ratio of ADCs Cycle 2/Cycle 1 (700 vs. 300 µg), Liver lesions (Part B Cohort 3 (4.5 GBq/cycle), median (range), n/n-les 7/10): 70.4 (52.4–95.7) % | Ratio of ADCs Cycle 2/Cycle 3 (700 vs. 300 µg), All lesions (Part B Cohort 3 (4.5 GBq/cycle), median (range), n/n-les 8/15): 77.6 (52.4–121) % | Ratio of ADCs Cycle 2/Cycle 1 (700 vs. 300 µg), All lesions (Part B Cohort 3 (4.5 GBq/cycle), median (range), n/n-les 9/17): 62.5 (27.6–95.7) % | Ratio of Cycle 3/ Cycle 1 ADCs, Bone marrow (Part B Cohort 3, image-based dosimetry, median (range), n = 6): 106 (36.4–138) % | Ratio of Cycle 3/ Cycle 1 ADCs, Spleen (Part B Cohort 3, median (range), n = 5): 87.8 (76.0–152) % | Ratio of Cycle 3/ Cycle 1 ADCs, Kidneys [5]: 94.1 (78.9–146) % | Ratio of Cycle 3/ Cycle 1 ADCs, Tumours [5]: 80.5 (44.1–152) % | Cycle 1 ADC, Bone marrow (Part B Cohort 6 (4.5 GBq, 300 µg), image-based dosimetry, median (range), n = 6): 0.1 (0.0–0.2) Gy/GBq | Cycle 1 ADC, Spleen (Part B Cohort 6 (4.5 GBq, 300 µg), median (range), n = 6): 0.8 (0.4–1.0) Gy/GBq | Cycle 1 ADC, Tumours (Part B Cohort 6 (4.5 GBq, 300 µg), median (range), n = 8): 13.5 (2.2–81.0) Gy/GBq | Cycle 1 ADC, Kidneys (Part B Cohort 6 (4.5 GBq, 300 µg), median (range), n = 9): 0.8 (0.4–1.1) Gy/GBq | Cycle 3 ADC, Bone marrow (Part B Cohort 6 (4.5 GBq, 300 µg; 1,300 µg at cycle 2), image-based dosimetry, median (range), n = 3): 0.1 (0.0–0.1) Gy/GBq | Cycle 3 ADC, Spleen (Part B Cohort 6 (4.5 GBq, 300 µg; 1,300 µg at cycle 2), median (range), n = 4): 0.8 (0.7–1.5) Gy/GBq | Cycle 3 ADC, Tumours (Part B Cohort 6 (4.5 GBq, 300 µg; 1,300 µg at cycle 2), median (range), n = 5): 7.7 (3.2–70.3) Gy/GBq | Cycle 3 ADC, Kidneys (Part B Cohort 6 (4.5 GBq, 300 µg; 1,300 µg at cycle 2), median (range), n = 6): 0.8 (0.7–1.2) Gy/GBq | Ratio of ADCs Cycle 2/Cycle 3 (1300 vs. 300 µg), Bone marrow (Part B Cohort 6 (4.5 GBq/cycle), image-based dosimetry, median (range), n = 3): 114 (50.0–120) % | Ratio of ADCs Cycle 2/Cycle 1 (1300 vs. 300 µg), Bone marrow (Part B Cohort 6 (4.5 GBq/cycle), image-based dosimetry, median (range), n = 4): 200 (80.0–240) % | Ratio of ADCs Cycle 2/Cycle 3 (1300 vs. 300 µg), Spleen (Part B Cohort 6 (4.5 GBq/cycle), median (range), n = 4): 49.7 (49.3–52.6) % | Ratio of ADCs Cycle 2/Cycle 1 (1300 vs. 300 µg), Spleen (Part B Cohort 6 (4.5 GBq/cycle), median (range), n = 5): 48.0 (44.3–94.4) % | Ratio of ADCs Cycle 2/Cycle 3 (1300 vs. 300 µg), Body [6]: 87.6 (72.7–102) % | Ratio of ADCs Cycle 2/Cycle 3 (1300 vs. 300 µg), Kidney [6]: 72.4 (52.8–96.3) % | Ratio of ADCs Cycle 2/Cycle 1 (1300 vs. 300 µg), Body [7]: 82.3 (48.3–97.6) % | Ratio of ADCs Cycle 2/Cycle 1 (1300 vs. 300 µg), Kidney [7]: 92.5 (65.9–121) % | Ratio of ADCs Cycle 2/Cycle 1 (1300 vs. 300 µg), Liver lesions [8]: 48.4 (24.7–76.5) % | Ratio of ADCs Cycle 2/Cycle 3 (1300 vs. 300 µg), Liver lesions [8]: 67.9 (40.6–104) % | Ratio of ADCs Cycle 2/Cycle 3 (1300 vs. 300 µg), All lesions (Part B Cohort 6 (4.5 GBq/cycle), median (range), n/n-les 5/11): 67.9 (40.6–104) % | Ratio of ADCs Cycle 2/Cycle 1 (1300 vs. 300 µg), All lesions (Part B Cohort 6 (4.5 GBq/cycle), median (range), n/n-les 6/13): 44.4 (24.7–76.5) % | Ratio of Cycle 3/ Cycle 1 ADCs, Bone marrow (Part B Cohort 6, image-based dosimetry, median (range), n = 3): 200 (175–400) % | Ratio of Cycle 3/ Cycle 1 ADCs, Spleen (Part B Cohort 6, median (range), n = 3): 185 (84.2–192) % | Ratio of Cycle 3/ Cycle 1 ADCs, Tumours (Part B Cohort 6, median (range), n = 4): 79.0 (28.6–114) % | Ratio of Cycle 3/ Cycle 1 ADCs, Kidneys (Part B Cohort 6, median (range), n = 5): 143 (88.8–198) % | Cumulative bone marrow absorbed dose, single patient (cohort 1 patient, one cycle at 5.9 GBq, developed grade 3 thrombocytopenia): 3.6 Gy | Overall specific absorbed dose coefficient in all lesions, initial diagnosis Pheochromocytoma + paraganglioma (first treatment cycle, median, N = 4): 2.1 Gy/GBq | Overall specific absorbed dose coefficient in all lesions, initial diagnosis Lung NET (first treatment cycle, median, N = 6): 5.1 Gy/GBq | Overall specific absorbed dose coefficient in all lesions, initial diagnosis GEP-NET (first treatment cycle, median, N = 23): 5.8 Gy/GBq | Patients with ADC ratio > 150% between cycle 3 and cycle 1, bone marrow (human, in vivo): 23.8 % of patients | Patients with ADC ratio > 150% between cycle 3 and cycle 1, kidneys (human, in vivo): 8.3 % of patients | Patients with ADC ratio > 150% between cycle 3 and cycle 1, liver (human, in vivo): no patients | Patients with ADC ratio > 150% between cycle 3 and cycle 1, spleen (human, in vivo): 22.2 % of patients | Mean cumulative absorbed dose in the left and right kidneys, single patient (part A patient, three cycles each at 4.5 GBq, eGFR below normal at baseline, no further deterioration of renal function): 24.1 Gy | Cumulative bone marrow absorbed dose, single patient (part A patient, three treatment cycles at 4.5, 4.4 and 4.3 GBq, no acute haematological toxicity): 2.2 Gy | Cumulative absorbed dose, bone marrow, image-based method (part A, cycles 1–3, 11 evaluated patients, median): 1.1 Gy | Cycle 1 ADC, Tumours (part B (all cohorts), median [range]): 7.9 [1.9–83.3] Gy/GBq | Cumulative bone marrow absorbed dose, single patient (part B cohort 1 patient, two treatment cycles at 4.7 GBq, no acute haematological toxicity): 1.9 Gy | Cumulative absorbed dose, kidneys (both left and right) (parts A and B, after cycles 1–3, median, pre-specified limit 23.0 Gy): 10.8 Gy | Cumulative absorbed dose, bone marrow, image-based (parts A and B, patients who completed three cycles (n = 21), median, pre-specified limit 1.5 Gy): 1.1 Gy | Cycle 1 ADC of tumours with ADC ratio cycle 3/cycle 1 > 150% (range): 0.6–4.1 Gy/GBq | Observations of ADC ratio between cycle 3 and cycle 1 in tumours > 150% (share of observations): 6.5% | Cumulative bone marrow absorbed dose, single patients (two additional patients after treatment cycle 4, individual values): 1.5 Gy and 1.8 Gy
